How the values were obtained:
mouse cortical neurons = experiment: Ca2+ imaging (jRGECO1a) of cOpn5-expressing neurons in brain slice preparations; assay type: cell-based; details: 10 s; 100 μW/mm2; 473 nm
From the text: The application of cOpn5-mediated optogenetics in neurons is explored. Whether cOpn5 could mediate light-induced Ca^2+ signals is firstly examined. Using AAV and the pan-neuronal SYN promoter, cOpn5 and the genetically-encoded Ca^2+ sensor jRGECOla are expressed in mouse cortical neurons (FIG. 8a). […] Thus, cOpn5 also enables light-induced activation in neurons.
b, Pseudocolor images show Ca^2+ signals before and after light stimulation (10 s; 100 μW/mm2; 473 nm). Scale bar, 10 μm.

[1] = tested on: GCaMP7b-expressing neurons in mouse S1 cortex; experiment: In vivo two-photon neuron calcium imaging following cOpn5-mediated astrocyte activation; details: cOpn5-mediated astrocytes activation; N=193 neurons
Protocol: Astrocytes release ATP and other gliotransmitters also act on neuronal receptors to modulate neuron activity. Two-photon imaging of neuronal Ca^2+ signals with cOpn5-mediated astrocytes activation from head-fixed awake, behaving mice, is performed (FIG. 6e). cOpn5-expressing cells (n=406) colocalize with GFAP-staining (n=397), but not GCaMP7b-expressing neurons (FIG. 6f).
e, Schematic diagram of the experimental setup for in vivo two-photon imaging (920 nm) of neuron calcium imaging following cOpn5-mediated astrocyte activation. Images show the expression of cOpn5 (red) in astrocytes and the expression of a GCaMP7b (green) in […] the mouse S1 cortex. Scale bar, 100 μm.
h, Calcium events analysis of GCaMP7b-expressing neurons in 0-5 min and 15-20 min, coupled with cOpn5-mediated astrocytes activation. N=193 neurons, ****P<0.0001, Unpaired t test.

[2] = tested on: GABA neurons in the zona incerta (ZI) of VGAT-Cre mice; experiment: Food-foraging behavior task; assay type: in vivo, mouse; details: vs EGFP-expressing mice
Protocol: Finally, the utility of cOpn5-mediated optogenetics for modulating animal behavior is assessed. The lateral hypothalamus (LH) is a brain center with known functions in reward processing and feeding behaviors^54,55. cOpn5 is expressed in the LH GABAergic neurons of VGAT-Cre mice and implanted optical fibers to deliver light pulses into the LH of freely behaving mice (FIG. 8g). […] Electrophysiological recordings on LH and ZI cOpn5-expressing neurons are performed to characterize the response profiles. The injection sites and placement of optical fibers are confirmed by whole brain slices (FIG. 10a-c). […] Thus, cOpn5 is effective for rapidly, accurately, and reversibly modulating animal behavioral states.
i, Schematic diagram of the experimental setup for food foraging behavior. High-fat food pellets were used. cOpn5-EGFP was expressed in GABAergic neurons within the zonal incerta (ZI) of VGAT-Cre mice. EGFP was expressed as a control.
j, Summary of cOpn5-mediated food foraging behaviors. Foraging time percentage was calculated upon receiving light stimulation until the mouse found the hidden food. ****P<0.0001; n=6 mice; unpaired t test. Error bars indicate S.E.M.

Gi signaling = experiment: cAMP levels in Opn5-expressing HEK 293T cells after photostimulation; assay type: cell-based; details: without additional retinal; 10 μM forskolin preincubation
Protocol: (§1) Whether heterologous expression of the Opn5 orthologs from chicken, turtles, humans and mice (which share 80-90% protein sequence identity) have the capacity to mediate blue light-induced Gq signaling activation within HEK 293T cells is tested (FIG. 1a and table 7). Blue light for stimulation and the red intracellular calcium indicator Calbryte™ 630 AM dye are used to monitor the relative Ca^2+ response (FIG. 1b).
f, Light has no effect on cAMP levels (10 μM forskolin preincubation) in cOpn5-expressing HEK 293T cells without additional retinal in the medium (left panel).

[3] = tested on: primary astrocyte cultures; experiment: Light-induced Ca2+ transients in cOpn5-expressing primary astrocyte cultures; assay type: cell-based, mouse; details: cOpn5-expressing astrocytes; Calbryte 630 AM
From the text: cOpn5 optogenetics allows spatially precise control of cellular activity. Restricting brief light stimulation (63 ms) into a subcellular region of individual cOpn5-expressing HEK 293T cell results in the immediate activation of single cell. […] The findings are extended into primary cell cultures. cOpn5 is expressed in primary astrocyte cultures prepared from the neonatal mouse brain with AAV vectors for bicistronic expression of cOpn5 and the EGFP marker protein (FIG. 5a). […] If the light stimulation (63 ms) is precisely restricted to only subcellular region of an individual cOpn5-expressing astrocyte, Ca^2+ signal propagation within the individual cell is observed (FIG. 3f). Resembling the tests in HEK 293T cells, wave-like propagation of Ca^2+ signals from the stimulated astrocyte that proceeded gradually to more distal, non-stimulated, astrocytes is observed (FIG. 3g, h).
a, cOpn5 was expressed in cultured primary astrocytes using AAV-cOpn5-T2A-EGFP (green). Astrocyte identity was confirmed by GFAP immunostaining (red). Scale bar, 20 μm.
b, Pseudocolor images of the baseline and peak Ca^2+ signals following light stimulation of cOpn5-expressing astrocytes. Scale bar, 20 μm.
c, Plot of Ca^2+ signals and heat map representation of Ca^2+ signals across trials (n=25 cells).

[4] = tested on: Gq signaling in HEK 293T cells; experiment: IP1 accumulation in Opn5-expressing HEK 293T cells; assay type: cell-based; details: continuous light 3 min; 100 μW/mm2; 470 nm
Protocol: as §1
f, YM suppressed the IP1 accumulation evoked by continuous light stimulation (3 min; 100 μW/mm^2; 470 nm) in cOpn5-expressing HEK 293T cells (Left). ***P<0.0001, *P=0.0128; Tukey's multiple comparisons test.

B1: cOpn5: Chicken (Gallus gallus) Opn5 (neuropsin) ortholog, SEQ ID NO:1, GenBank NM_001130743.1 (protein, listed as Gallus lafayetii)
chain: MSGMASDCNSSSQEEYLPHYVQQEDPFASKLSREADIIAGFYLTVIGILSTLGNGYVIFMSSKRKKKLRPAEIMTVNLAVCDLGISVVGKPFSIISFFSHRWIFGWMGCRWYGWAGFFFGCGSLITMTAVSLDRYLKICHLAYGTWLKRHHAFICLALIWAYATFWATVPFAGVGSYAPEPFGTSCTLDWWLAQASVAGQAFVLSILFFCLLFPTAVIVFSYVKIILKVKSSTKEVAHYDTRIQNSHILEMKLTKVAMLICAGFLIAWIPYAVVSVWSAFGQPDSVPIQFSVVPTLLAKSAAMYNPIIYQVIDCKFACCRSGGPKTLQKKSSLKESRMYTLSSHRDSAALSGTQLEV
Ca2+ transients in neurons on blue light pulses (mouse cortical neurons): reliably evokes Ca^2+ transients
neuron activity, 15-20 min compared to 0-5 min [1]: significantly elevates neuron activity
time of foraging high fat food pellets on repeated light stimulation [2]: significantly increase in the time of foraging
effect of light on cAMP levels (Gi signaling): has no such effect
Ca2+ transients on blue light illumination [3]: ~8 ΔF/F
light-induced increase in the level of inositol phosphate (IP1) [4]: light-induced increase

From patent US20250011391A1, “ULTRA LIGHT-SENSITIVE NEUROPSIN-BASED OPTOGENETIC TOOL FOR ACTIVATING G q-COUPLED SIGNALING AND/OR ACTIVATING CELLS” (GENANS BIOTECHNOLOGY CO., LTD, priority 2021, published 2025)
